# Experimental data published in publication PMC12447578, “Syndecan-4 interacts directly with β-parvin and regulates the ILK-PINCH-β-parvin complex, the β-parvin-β-PIX-Rac1 axis, and cardiomyocyte geometry in a sex-dependent manner” (Frontiers in Cell and Developmental Biology, 2025).
# B1: ILK (S343D): Recombinant mouse 8xHIS-ILK (S343D), custom-made by GenScript (protein)
# chain: MDDIFTQCREGNAVAVRLWLDNTENDLNQGDDHGFSPLHWACREGRSAVVEMLIMRGARINVMNRGDDTPLHLAASHGHRDIVQKLLQYKADINAVNEHGNVPLHYACFWGQDQVAEDLVANGALVSICNKYGEMPVDKAKAPLRELLRERAEKMGQNLNRIPYKDTFWKGTTRTRPRNGTLNKHSGIDFKQLNFLAKLNENHSGELWKGRWQGNDIVVKVLKVRDWSTRKSRDFNEECPRLRIFSHPNVLPVLGACQAPPAPHPTLITHWMPYGSLYNVLHEGTNFVVDQSQAVKFALDMARGMAFLHTLEPLIPRHALNSRSVMIDEDMTARISMADVKFDFQCPGRMYAPAWVAPEALQKKPEDTNRRSADMWSFAVLLWELVTREVPFADLSNMEIGMKVALEGLRPTIPPGISPHVCKLMKICMNEDPAKRPKFDMIVPILEKMQDK
# modifications: left off: 8xHIS, end not stated, state not stated
# notes: Recombinant mouse 8xHIS-ILK (S343D), custom-made by GenScript
# How the values were obtained:
# [1] = biological target: Biotin-ahx-SDC4cyt (human, rat and mouse (identical)); assay: SPR; Biacore X100; biotin-ahx-SDC4cyt immobilised on SA chip at 100-200 RU; parvin as analyte 26.5-277.7 nM in Hepes pH 7.4, 150 mM NaCl, 3 mM EDTA, 0.005% Surfactant P20; 30 µL/min, 180 s association, 600 s dissociation; 1:1 Langmuir model
# [2] = tested on: FL β-parvin 20′mer overlapping peptides; assay: Peptide overlay: 20-mer β-parvin peptides overlaid with recombinant ILK (S343D); assay type: binding, rat; settings: peptide array, O/N, 4°C, ILK antibodies, n = 4 membranes
# Source text: Full-length (FL) recombinant human C-Myc/DDK-β-parvin was obtained from OriGene (TP308490, Rockville, MD, United States). Recombinant rat 8xHIS-β-parvin (85% purity), rat 8xHIS-α-parvin (85% purity), and mouse 8xHIS-ILK (S343D) (75% purity) were custom-made by GenScript.
# The cytoplasmic tail of syndecan-4 (mouse) or FL β-parvin (rat) protein was synthesized as 20′mer overlapping peptides with 3 amino acids offset onto a cellulose membrane by a Multipep automated peptide synthesizer (CEM Corporation, Matthews, NC, United States) ([Frank and Overwin, 1996]). After membrane blocking, antibodies, or a solution with recombinant protein or biotin-ahx-SDC4 were added and incubated O/N at 4°C. Membranes were developed as described for immunoblotting.
# Sequence of Biotin-ahx-SDC4cyt (human, rat and mouse (identical)) (P31431 171-198): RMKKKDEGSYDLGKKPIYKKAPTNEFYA
Molecule,Kd [1] [nM],koff [1] [s⁻¹],kon [1] [M⁻¹ s⁻¹],ILK binding site in β-parvin (CH2 domain) [2]
Recombinant rat 8xHIS-β-parvin (natural protein),11.1,8.6e-05,10000,
B1,,,,bound a few amino acids upstream of the syndecan-4 core binding site
